Source: patent publication US20080207498A1, “Methods for Treating Alzheimer's Disease” (priority 2005, published 2008)
No end group written: not given here.

B1: Peptide … (SEQ ID NO:14) (peptide)
peptide: APPCARHLGELVWCT
modifications: not fully specified; cysteine pairing not given here
B2: Peptide … (SEQ ID NO:3) (peptide)
peptide: DCAFHLGELVWCT
B3: Peptide … (SEQ ID NO:16) (peptide)
peptide: APPDCAWHLGELVWCT
B4: Peptide … (SEQ ID NO:15) (peptide)
peptide: APPCAFHLGELVWCT
modifications: not fully specified; cysteine pairing not given here
B5: Peptide … (SEQ ID NO:13) (peptide)
peptide: APPCAWHLGELVWCT
modifications: not fully specified; cysteine pairing not given here

What was measured:
[1] = biological target: Preformed immune complex of peroxidase and rabbit anti-peroxidase IgG (PAP complex) (horseradish) (UniProt P00433); test: competition reverse ELISA: PAP pre-incubated with peptide, residual PAP binding to FcγIIb-coated plate
Preformed immune complex of peroxidase and rabbit anti-peroxidase IgG (PAP complex) (horseradish), sequence (P00433 31-338, one chain of several): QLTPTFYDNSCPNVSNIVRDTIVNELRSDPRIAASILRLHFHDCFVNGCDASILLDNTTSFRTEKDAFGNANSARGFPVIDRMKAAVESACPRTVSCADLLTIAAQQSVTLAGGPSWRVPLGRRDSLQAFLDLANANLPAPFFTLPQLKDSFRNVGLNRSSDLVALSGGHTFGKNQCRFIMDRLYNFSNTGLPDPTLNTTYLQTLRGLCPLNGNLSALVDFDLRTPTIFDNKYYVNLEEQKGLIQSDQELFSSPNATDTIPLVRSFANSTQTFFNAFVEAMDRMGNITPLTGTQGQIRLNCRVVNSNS

[2] = biological target: Preformed immune complex of peroxidase and rabbit anti-peroxidase IgG (PAP complex) (horseradish) (UniProt P00433); test: competition reverse ELISA: PAP pre-incubated with peptide, residual PAP binding to C1q-coated plate
[3] = biological target: Preformed immune complex of peroxidase and rabbit anti-peroxidase IgG (PAP complex) (horseradish) (UniProt P00433); test: competition reverse ELISA: PAP pre-incubated with peptide, residual PAP binding to FcγIII-coated plate
[4] = biological target: Preformed immune complex of peroxidase and rabbit anti-peroxidase IgG (PAP complex) (horseradish) (UniProt P00433); test: competition reverse ELISA: PAP pre-incubated with peptide, residual PAP binding to FcγIIa-coated plate
[5] = biological target: Preformed immune complex of peroxidase and rabbit anti-peroxidase IgG (PAP complex) (horseradish) (UniProt P00433); test: competition reverse ELISA: PAP pre-incubated with peptide, residual PAP binding to plate coated with human wt β amyloid peptide 1-40
[6] = biological target: Preformed immune complex of peroxidase and rabbit anti-peroxidase IgG (PAP complex) (horseradish) (UniProt P00433); test: competition reverse ELISA: PAP pre-incubated with peptide, residual PAP binding to plate coated with human wt tau

| Binder | OD 405 nm [1] [OD] | OD 405 nm [2] [OD] | OD 405 nm [3] [OD] | OD 405 nm [4] [OD] | OD 405 nm [5] [OD] | OD 405 nm [6] [OD] |
| --- | --- | --- | --- | --- | --- | --- |
| B1 | 0.768 | 0.567 | 0.709 | 0.956 | – | – |
| B2 | 0.51 | 0.859 | 0.81 | 0.66 | – | – |
| B3 | 0.496 | 0.389 | 0.67 | 0.509 | 0.885 | 0.059 |
| B4 | 0.38 | 0.983 | 0.88 | 0.605 | – | – |
| B5 | 0.562 | 1.15 | 0.53 | 0.658 | – | – |
